# Source: article PMC10009750, “Development of Selective ADAMTS-5 Peptide Substrates to Monitor Proteinase Activity” (Journal of Medicinal Chemistry, 2023)
# Non-standard residues stand in square brackets, D forms with d. No end group written: not given here. Tyr(3-NO2) = N[C@@H](Cc1ccc(O)c([N+](=O)[O-])c1)C(=O)O; 2Abz = Nc1ccccc1C(=O)O
# Experiments:
# [1] = target: T1, TS5-5 (ADAMTS-5) (Homo sapiens, UniProt Q9UNA0); assay: Sensitivity studies with TS5-5; format: biochemical; settings: 37 °C; for ΔRFU after 20 h: single experiment in triplicate; for lowest ADAMTS-5 concentration at which activity is detected: 5 μM substrate, experiments performed for ∼20 h
# T1 construct: ADAMTS-5 (i.e. TS5-5, residues 264–555); FLAG; made in house; host or cells: HEK293 cells (previously transfected stocks)
# T1 sequence (Q9UNA0 264-555): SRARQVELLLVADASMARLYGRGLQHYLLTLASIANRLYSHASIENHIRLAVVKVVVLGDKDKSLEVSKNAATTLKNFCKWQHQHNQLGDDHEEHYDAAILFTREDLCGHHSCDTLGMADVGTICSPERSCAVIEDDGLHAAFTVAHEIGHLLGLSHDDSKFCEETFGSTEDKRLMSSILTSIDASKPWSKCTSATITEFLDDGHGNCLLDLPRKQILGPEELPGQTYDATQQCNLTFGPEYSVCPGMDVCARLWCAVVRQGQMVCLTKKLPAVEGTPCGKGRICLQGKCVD
# Experimental: Abz-TESE↓SRGAIY-Dpa-KK-NH2, library parent peptide 3 and hit peptide 26 (5 mM) were each diluted to two concentrations (5.56 μM and 2.78 μM) in freshly prepared TNC buffer with 0.005% (v/v) Brij-35. The two concentrations for each substrate (90 μL) were added to a 96-well black microplate in triplicate. A substrate-only background control was also added in triplicate (90 μL). The resultant solutions were incubated at 37 °C (20 min). TS5-5 proteinase was thawed from −20 °C and made up at the following concentrations in TNC buffer with 0.005% (v/v) Brij-35:10, 5, 2.5, and 1.25 nM. Each concentration of proteinase was added to substrate wells (10 μL), with buffer added to substrate-only control wells (10 μL). The relative fluorescence intensity was measured at 37 °C for 24 h, with readings every 2 min.
# [2] = target: T2, TS4-4 (ADAMTS-4) (Homo sapiens, UniProt O75173); assay: Selectivity studies: cleavage of FRET peptide substrates by TS4-4; format: biochemical; settings: substrate 20 μM; for preference (selectivity) for TS5-5 over TS4-4: ratio of cleavage rates; for rate of cleavage by TS4-4: TS4-4 50–90 nM, mean of 3–4 independent experiments in triplicate
# T2 construct: TS4-4, TS5-5 = catalytic and disintegrin domains; made in house; host or cells: HEK293 cells (previously transfected stocks)
# T2 sequence (O75173 213-519 limits assumed): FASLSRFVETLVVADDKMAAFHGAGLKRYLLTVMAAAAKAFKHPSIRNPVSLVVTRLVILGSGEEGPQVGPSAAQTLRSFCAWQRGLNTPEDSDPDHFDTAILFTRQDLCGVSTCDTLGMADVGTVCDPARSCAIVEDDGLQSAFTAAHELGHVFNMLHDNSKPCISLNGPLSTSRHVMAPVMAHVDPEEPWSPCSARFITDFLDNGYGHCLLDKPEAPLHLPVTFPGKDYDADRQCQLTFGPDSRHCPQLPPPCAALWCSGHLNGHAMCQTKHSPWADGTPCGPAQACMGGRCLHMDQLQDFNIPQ
# Experimental: All proteinase assays were performed at 37 °C in a SpectraMax M5 spectrophotometer (Molecular Devices, San Jose, USA) using a 96-well black microplate (Greiner bio-one, Stonehouse, UK) unless otherwise stated. […] N-TIMP-3 was purified as described previously[30] and CT-1746 was a gift from Dr. Yoshifumi Itoh (Kennedy Institute of Rheumatology, University of Oxford). All analyses were carried out using Prism 9 software (GraphPad, La Jolla, CA, USA).
# Selectivity studies are described for Abz-TESE↓SRGAIY-Dpa-KK-NH2, the library parent peptide 3, and hit peptides 18–26. A solution of Abz-TESE↓SRGAIY-Dpa-KK-NH2 (22.22 μM) in freshly prepared TNC buffer with 0.005% (v/v) Brij-35 (90 μL) was added to a 96-well clear bottom microplate (Greiner bio-one, Stonehouse, UK) in triplicate. A substrate-only background control was also added in triplicate (90 μL). The resultant solutions were incubated at 37 °C (30 min). An ADAMTS or MMP proteinase was added to substrate wells (10 μL) to give a final proteinase concentration of either 50–90 nM (TS4-4), 25–200 nM (TS5-5), 5–10 nM (MMP-2ΔC), 30 nM (MMP-9ΔC), 92 nM (MMP-1), or 3 μM (MMP-3). TNC buffer with 0.005% (v/v) Brij-35 was added to substrate-only control wells (10 μL). The relative fluorescence intensity was measured at 37 °C for 1 h with readings every 20 s. Activity was read from underneath the microplate, which was covered with a low evaporation lid. […] For each ADAMTS and MMP proteinase, the assay was performed 2–4 times. […] Final rates were expressed as a percentage of substrate cleavage by TS5-5 (mean ± SEM) or in μM s^–1 μM^–1 of proteinase.
# [3] = TNC buffer with 0.005% (v/v) Brij-35, 37 °C
Substance,"ΔRFU after 20 h ([1]; 0.25 nM TS5-5, substrate 5 μM)","ΔRFU after 20 h ([1]; 0.5 nM TS5-5, substrate 5 μM)","ΔRFU after 20 h ([1]; 1 nM TS5-5, substrate 5 μM)",preference (selectivity) for TS5-5 over TS4-4 [2],"cleavage by TS4-4 as a fraction (percentage) of TS5-5 cleavage of the current substrate ([2]; TNC buffer with 0.005% (v/v) Brij-35, 37 °C, mean of 2–8 independent experiments in triplicate)","rate of cleavage by TS4-4 [2, 3]",lowest ADAMTS-5 concentration at which activity is detected [1]
"Abz-TESE↓SRGAIY-Dpa-KK-NH2 [current, ortho-aminobenzoyl(Abz)-TESE↓SRGAIY-N-3-[2,4-dinitrophenyl]-L-2,3-diaminopropionyl(Dpa)-KK-NH2, reference compound]",no longer able to detect TS5-5 activity above background fluorescence,59,> 100,~5 fold,22%,0.090 μM s^–1 μM^–1,–
KY(NO2)SENESRGK(Abz)IYYKKG (K[Tyr(3-NO2)]SENESRGK(2Abz)IYYKKG) [Compound 26],> 30,> 100,> 100,~13 fold,–,0.08–0.10 μM s^–1 μM^–1,0.25 nM
KY(NO2)TESESRGK(Abz)IYYKKG (K[Tyr(3-NO2)]TESESRGK(Abz)IYYKKG) [Compound 3],> 30,> 100,> 100,~16 fold,–,0.08–0.10 μM s^–1 μM^–1,0.25 nM
